The text below walks through data of patent US7460961B2, “N-TRADD active site and uses thereof” (Genetics Institute, LLC, priority 2000, dated 2008).

Sequences and labels used below:
T1: N-TRADD/C-TRAF2 interaction (Homo sapiens, UniProt Q12933)
T1 construct: The C-TRAF2 (residues 262-501) used in the instant HSQC titration experiment; initiator Met added before residue 262 (N); 6xHis (C); made in house; host or cells: C-TRAF2: baculovirus in 'Tini' cells; N-TRADD: E. coli BL-21
T1 sequence (Q12933 262-501): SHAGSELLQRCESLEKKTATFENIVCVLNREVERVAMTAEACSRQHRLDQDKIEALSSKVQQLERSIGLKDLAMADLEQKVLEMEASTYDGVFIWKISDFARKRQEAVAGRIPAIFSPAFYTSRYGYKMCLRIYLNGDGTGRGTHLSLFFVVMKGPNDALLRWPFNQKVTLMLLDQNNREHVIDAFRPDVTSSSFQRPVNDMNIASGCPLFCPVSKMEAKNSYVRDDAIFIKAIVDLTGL

T2: N-TRADD/C-TRAF2 binding (Homo sapiens, UniProt Q12933)
T2 construct: The C-TRAF2 (residues 262-501) used in the instant HSQC titration experiment; initiator Met added before residue 262 (N); 6xHis (C); made in house; host or cells: C-TRAF2: baculovirus in 'Tini' cells; N-TRADD: E. coli BL-21
T2 sequence (Q12933 262-501): T1 sequence (Q12933 262-501)

T3: N-TRADD (Homo sapiens, UniProt Q15628)
T3 construct: The polypeptide for N-TRADD (1-169) was overexpressed in BL-21 E. coli; His tag (C); made in house; host or cells: E. coli BL-21, vector pRSETB
T3 sequence (Q15628 1-169): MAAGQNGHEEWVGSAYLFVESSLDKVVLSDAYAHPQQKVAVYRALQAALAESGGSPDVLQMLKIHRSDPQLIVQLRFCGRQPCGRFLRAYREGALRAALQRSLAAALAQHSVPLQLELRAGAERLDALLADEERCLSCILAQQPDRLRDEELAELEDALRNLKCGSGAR

T4: C-TRAF2 (residues 262 to 501 of human TRAF2) (human, UniProt Q12933 262-501)
T4 construct: range 262-501; Expressed by baculovirus; Amine-coupled to a CM5 chip in the BIAcore experiments; also called C-terminal domain of TRAF2; C-TRAF2 (residues 262-501)
T4 sequence: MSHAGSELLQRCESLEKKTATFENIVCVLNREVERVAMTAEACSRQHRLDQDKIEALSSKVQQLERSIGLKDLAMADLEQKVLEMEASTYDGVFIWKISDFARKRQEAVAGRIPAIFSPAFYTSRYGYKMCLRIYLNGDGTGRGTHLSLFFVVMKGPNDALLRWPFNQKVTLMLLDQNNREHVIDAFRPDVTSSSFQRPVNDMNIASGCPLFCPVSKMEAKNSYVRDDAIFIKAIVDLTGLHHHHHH

B1: N-terminal domain of human TNFR-1 associated death domain protein (N-TRADD), residues 1-169, wild type (other)
chain: T3 sequence (Q15628 1-169)
notes: Expressed in E. coli BL-21; monomeric (>95%) by SEC-HPLC; 15N or 15N/13C labelled for NMR; also called N-TRADD (1-169); wild-type N-TRADD; not shown: His tag introduced after aa169
B2: N-TRADD H65A mutant protein (other)
chain: T3 sequence (Q15628 1-169) with H65A
notes: Single point mutant of the N-TRADD (1-169) construct; not shown: His tag after aa169 of the N-TRADD construct
B3: N-TRADD Y16A mutant protein (other)
chain: T3 sequence (Q15628 1-169) with Y16A
notes: as for B2
B4: N-TRADD I72A mutant protein (other)
chain: T3 sequence (Q15628 1-169) with I72A
notes: also called 172A (so in the source); not shown: His tag after aa169 of the N-TRADD construct
B5: N-TRADD D149A mutant protein (other)
chain: T3 sequence (Q15628 1-169) with D149A
notes: as for B2
B6: 13-mer peptide derived from CD40 (SNTAAPVQETLHG-OH) (peptide)
peptide: SNTAAPVQETLHG-OH
notes: Synthesised by Fmoc solid-phase methods; printed with a free C-terminus (-OH); also called CD40 peptide; CD40-derived peptide
B7: CD40-p1 peptide (YPIQET) (peptide)
peptide: YPIQET
notes: Peptide of McWhirter et al; also called CD40-pl; 6-mer peptide

Test [1] addresses T1, N-TRADD/C-TRAF2 interaction. The test is described as follows: BIAcore competition for binding of N-TRADD to C-TRAF2. The protocol: (§1) C-TRAF2 and N-TRADD binding studies: The affinity of wild-type N-TRADD and C-TRAF2 was measured by surface plasma resonance using a BIAcore 2000 system (Pharmacia Biosensor AB). C-TRAF2 (residues 262-501) was purified and coupled to a sensor chip CM5 by amine coupling at pH=5.0 to get about 800, 1500 and 5500 response units on three different flow cells. A constant flow (20 μL/min) of purified N-TRADD protein in 10 mM Hepes, pH=7.4, 150 mM NaCl, 3.4 mM EDTA and 0.05% P20 surfactant at 8 different concentrations from 650 μM to 84 μM was applied over the protein coupled chip for 2 min to analyze the association. Binding constants were obtained from the BIAevaluation software.
In the instant studies, the interaction between a 13-mer peptide derived from CD40 (a longer version of CD40 -pl, with sequences SNTAAPVQETLHG (SEQ ID NO:2)) with C-TRAF2 was characterized, as well as its effect on the N-TRADD/C-TRAF2 interaction. […] In addition the peptide was also able to compete for the binding of N-TRADD to C-TRAF2, with an IC50 of ˜1 mM.
In addition to this 13-mer peptide, the effect of the CD40-p1 peptide (McWhirter et al, Proc. Natl. Acad. Sci. USA 96: 8408-8413, 1999) on the interaction between N-TRADD and C-TRAF2 was also evaluated. […]

Test [2] concerns the target T2, N-TRADD/C-TRAF2 binding. The test is described as follows: 1H-15N HSQC NMR study of N-TRADD/C-TRAF2 binding, inhibition by peptide. Particulars: peptide 3 mM; N-TRADD and C-TRAF2 110 μM each; data not shown. How it is done:
(§2) NMR Spectroscopy: All NMR spectra were collected on a 600 MHZ Varian Unity Plus spectrometer. For the backbone assignments, HNCACB and HN(CO)CACB experiments (Clore and Gronenborn, Methods Enzymol. 239: 349-363, 1994; Muhandiram, et al., J. Magn. Reson. B103: 208-216, 1994) were performed. To confirm the type of amino acid assignment, C(CO)NH-TOCSY (Grzesiek, et al., J. Magnetic Resonance, B101: 114-119, 1993) was used. Side chain resonances were assigned from the following experiments: HBHA(CO)NH (Clore and Gronenborn, Methods Enzymol. 239: 349-363, 1994), HC(CO)NH-TOCSY (Grzesiek, et al., J. Magnetic Resonance. B101: 114-119, 1993) for the ^15N/^13C sample in 90% H2O, 10% D2O, HCCH-TOCSY for the ^15N/^13C-labeled sample in D2O, and ^15N-TOCSY-HSQC with the uniformly labeled ^15N protein.
The ^1H-^15N HSQC of N-TRADD was used as a tool to map the binding interface with C-TRAF2, since the chemical shifts of contact residues will be perturbed upon complex formation. […] The C-TRAF2 (residues 262-501) used in the instant HSQC titration experiment (at 120 μM) is also a trimer, as determined by size exclusion chromatography. […] N-TRADD Mutagenesis and interactions between C-TRAF2 and N-TRADD: In order to further characterize the amino acids in N-TRADD that are involved in C-TRAF2 recognition, site directed mutants of N-TRADD were prepared and evaluated for their ability to bind C-TRAF2. […]

Test [3] deals with T3, N-TRADD. The test is described as follows: 1H-15N HSQC of N-TRADD with addition of peptide. Type of test: binding. How it is done: as §2
Inhibition by the CD40-derived peptide was also observed in the ^1H-^15N HSQC studies of N-TRADD/C-TRAF2 binding. At stoichiometric concentrations of N-TRADD and C-TRAF2 (110 μM each), HSQC peaks for N-TRADD have broadened out due to binding to C-TRAF2 as described above.

In test [4] the target is T3, N-TRADD. Description: BIAcore experiment, CD40 peptide with N-TRADD. The test is classed as binding. Particulars: final peptide concentration approximately 15 mM; data not shown. A general note: In SPR one partner is held on a chip, and binding of the other changes the refractive index at the surface.
Test [5] concerns the target T4, C-TRAF2 (residues 262 to 501 of human …). The test is described as follows: BIAcore (SPR), C-TRAF2 amine-coupled to CM5 chip, N-TRADD in flow. The protocol:
as §1, with “µL/min)” for “μL/min)”, “µM” for “μM”

The target is the same in test [6]. The test is described as follows: BIAcore surface plasmon resonance, C-TRAF2 (printed TF2-C) coupled to the CM5 chip, N-TRADD mutant in the flow.
Test [7] has the same target. Description: BIAcore (SPR), C-TRAF2 on chip. The protocol:
as §1, with “µL/min)” for “μL/min)”, “µM” for “μM”

Test [8] has the same target. Description: BIAcore (SPR).
Test [9] deals with B1. The test is described as follows: 1H-15N HSQC NMR.
Test [10] addresses T4, C-TRAF2 (residues 262 to 501 of human …). The test is described as follows: BIAcore competition; competitor N-TRADD.
Test [11] has the same target. Description: inhibition of the N-TRADD/C-TRAF2 interaction; competitor N-TRADD.

Positions count from the first letter of the chain named. Names may count otherwise. Ends that are not written are not given here.

Regarding “SNTAAPVQETLHG-OH [13-mer peptide derived from CD40, SNTAAPVQETLHG-OH]”, the “inhibition of the interaction between N-TRADD and C-TRAF2 (in words)” value in test [1] is “inhibited”. Further, in test [2], the “effect on 1H-15N HSQC spectrum of N-TRADD broadened by C-TRAF2” value is recorded as “restored the ^1H-^15N HSQC spectrum of N-TRADD alone”. Also, the “interaction between N-TRADD and peptide (changes in 1H-15N HSQC of N-TRADD)” value in [3] is reported as “No interaction”. For the same molecule, in test [4], the “interaction between peptide and N-TRADD by BIAcore” value was “lack of interaction”.

What is called Kd is the free concentration of one partner at which half of the binding sites on the other are occupied at equilibrium, for simple one-to-one binding. Read a high Kd as lower affinity. On to B1, for which binding in [5] was put at a Kd of 6 µM.

Consider B2, for which the binding result in test [6] is reported as “binds”.

Turning to B3, the “fold reduction in C-TRAF2 affinity against wild-type N-TRADD” value in [7] is ~16 fold.

In the case of B4, the binding result in test [6] was “binds”.

With B5, the binding result in [6] was “binds”.

As usually defined, the IC50 is the concentration at which inhibition is half-maximal. Low values mean inhibition by little substance, high ones a need for much substance. Regarding B6, in test [8], the equilibrium dissociation constant (Kd) was ~1000 µM. Further, in test [9], the binding result is reported as “no binding”. Further, the IC50 in [10] is ~1000 µM.

B7: the IC50 in test [11] was ~200 µM.
